The values that follow come from patent publication US20120077731A1 (Ablynx, published 2012).

Numbering of substitutions follows the chain as printed.

The target in one test is T1, Cyno IL-6R (cynomolgus monkey, UniProt A0A2K5WN54 60-396).
T1 construct: also called cynomolgus monkey IL-6R; recombinant cyno sIL-6R
T1 sequence: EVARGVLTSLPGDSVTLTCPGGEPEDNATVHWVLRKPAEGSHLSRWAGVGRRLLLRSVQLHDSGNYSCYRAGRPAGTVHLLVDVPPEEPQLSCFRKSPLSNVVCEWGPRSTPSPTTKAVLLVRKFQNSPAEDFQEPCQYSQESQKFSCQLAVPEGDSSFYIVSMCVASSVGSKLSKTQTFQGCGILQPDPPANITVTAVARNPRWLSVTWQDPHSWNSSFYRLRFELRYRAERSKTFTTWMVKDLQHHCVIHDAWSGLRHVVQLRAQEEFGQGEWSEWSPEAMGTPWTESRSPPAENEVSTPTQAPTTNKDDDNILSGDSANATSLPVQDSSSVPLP
Nature of the test: SPR Biacore 3000, cyno IL-6R amine-coupled to CM5.

In test [1] the target is T2, Cyno plasma sIL-6R (cynomolgus monkey, UniProt A0A2K5WN54 60-396).
T2 construct: also called cynomolgus sIL-6R
T2 sequence: T1 sequence
Kind of test: plasma potency ELISA, cyno plasma + human IL-6 50 ng/mL; sIL-6R captured on BN-12, bound IL-6 detected; blocked ligand IL-6. (In general: In an ELISA, binding on a coated surface is turned into a signal by an enzyme label.)

For test [2], the target named is T3, Human plasma sIL-6R (human, UniProt P08887 20-355, limits assumed).
T3 construct: also called plasma-derived human IL-6R
T3 sequence (looked up): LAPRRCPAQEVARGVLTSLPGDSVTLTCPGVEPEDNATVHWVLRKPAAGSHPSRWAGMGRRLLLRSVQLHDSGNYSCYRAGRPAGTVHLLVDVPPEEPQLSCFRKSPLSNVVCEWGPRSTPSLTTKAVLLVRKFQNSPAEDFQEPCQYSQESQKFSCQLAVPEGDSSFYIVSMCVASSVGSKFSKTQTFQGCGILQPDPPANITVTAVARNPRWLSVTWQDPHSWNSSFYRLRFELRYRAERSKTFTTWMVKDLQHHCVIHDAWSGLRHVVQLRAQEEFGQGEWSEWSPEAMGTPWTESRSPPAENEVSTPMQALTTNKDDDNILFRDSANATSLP
Kind of test: plasma potency ELISA, human plasma + human IL-6 50 ng/mL; sIL-6R captured on BN-12, bound IL-6 detected; blocked ligand IL-6.

Test [3] deals with T4, Human soluble IL-6R (human, UniProt P08887 20-358).
T4 construct: Soluble recombinant form; biotinylated in some assays; also called hIL-6R; human IL-6R
T4 sequence (looked up): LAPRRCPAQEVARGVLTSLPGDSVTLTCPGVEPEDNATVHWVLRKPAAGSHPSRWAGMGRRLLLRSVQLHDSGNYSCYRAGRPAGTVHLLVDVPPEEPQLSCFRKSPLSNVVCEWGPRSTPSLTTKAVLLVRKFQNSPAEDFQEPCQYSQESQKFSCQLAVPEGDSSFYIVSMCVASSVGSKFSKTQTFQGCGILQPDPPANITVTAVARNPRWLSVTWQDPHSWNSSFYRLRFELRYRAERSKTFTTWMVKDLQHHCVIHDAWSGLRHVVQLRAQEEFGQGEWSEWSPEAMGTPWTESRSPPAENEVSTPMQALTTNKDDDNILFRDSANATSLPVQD
Nature of the test: Biacore T100. (In general: SPR reads the build-up and loss of mass on a sensor chip optically.)

Test [4] deals with T4, Human soluble IL-6R. Kind of test: Biacore T100; value marked estimated.
In test [5] the target is T4, Human soluble IL-6R. Nature of the test: Biacore T100, IL-6R covalently coupled.
In test [6] the target is T2, Cyno plasma sIL-6R. Nature of the test: plasma potency assay, cyno plasma, 2.4 nM IL6; blocked ligand IL-6.
Procedure: (§1) All 5 affinity matured Nanobodies and the sequence optimized Nanobody were also tested in a plasma potency assay. […] TMB was used as substrate.
Test [7] has as its target T3, Human plasma sIL-6R. Nature of the test: plasma potency assay, human plasma, 42 nM IL6; blocked ligand IL-6.
Procedure: as §1
In test [8] the target is T3, Human plasma sIL-6R. Kind of test: plasma potency assay, human plasma, 2.4 nM IL6; blocked ligand IL-6.
Procedure: as §1
In test [9] the target is T4, Human soluble IL-6R. Nature of the test: Biacore, binding to IL-6R.
For test [10], the target named is T4, Human soluble IL-6R. Kind of test: Alphascreen, inhibition of bio-IL-6 binding to IL-6R. (Bead proximity is the source of the signal in Alpha formats.)
Procedure: Finally streptavidin donor beads were added and after 1 hour incubation the plate was read on the Envision microplate reader. Parental clones were included as reference.
For test [11], the target named is T4, Human soluble IL-6R. Kind of test: Alphascreen IL-6/IL-6R competition (IL-6R 0.3 nM, bio-IL-6 3 nM); row EC50 of the fit table, axis [competitor], M; blocked ligand IL-6.

Procedure for Cyno IL-6R: Remaining reactive groups were inactivated. […] Each sample was injected for 4 min at a flow rate of 45 μl/min to allow for binding to chip-bound antigen. Next, binding buffer without Nanobody was sent over the chip at the same flow rate to allow for dissociation of bound Nanobody.

B1: IL6R201 (VHH)
VHH: EVQLVESGGGLVQPGGSLRLSCAASGFTFSDYDIGWFRQAPGKGREGVSGISSSDGNTYYADSVKGRFTISRDNAKNTLYLQMNSLRPEDTAVYYCAAEPPDSSWYLDGSPEFFKYWGQGTLVTVSS
notes: also called tagless version of IL6R75; 16R201/75
As a reminder, the Kd is the concentration at which binding is half-saturated. A higher Kd goes with weaker binding. A word on the koff: it is a measure of how fast the partners let go of each other. As a reminder, the kon is a measure of how fast the partners come together. In the test with Cyno IL-6R, B1 displayed a Kd of 28.1 nM, a koff of 0.00611 s⁻¹ and a kon of 218000 M⁻¹ s⁻¹. Moreover, the “IC50 (read off the curve)” value in the test with Cyno plasma sIL-6R [1] is roughly 0.6 nM. Besides, the “IC50 (read off the curve)” value in the test with Human plasma sIL-6R [2] is roughly 0.04 nM.

B2: PMP20E10 (VHH)
VHH: EVQLVESGGGLVQPGGSLRLSCAASGSVFKINVMAWYRQAPGKGRELVAGIVSGGSTSYADSVKGRFTISRDNAKNTLYLQMNSLRPEDTAVYYCAFITTESDYDLGRRYWGQGTLVTVSS
notes: not shown: c-myc and (His)6 tags
A word on the IC50: it is the concentration at which inhibition is half-maximal. Higher therefore signals weaker potency. For the molecule B2, binding with Human soluble IL-6R [3] was characterised by a dissociation constant (Kd) of 0.033 nM. Also, in the test with Human soluble IL-6R [4], the kon was roughly 1e+06 M⁻¹ s⁻¹. This molecule yielded a koff with Human soluble IL-6R [5] of 3.3e-05 s⁻¹. Also, the IC50 with Cyno plasma sIL-6R [6] turned out to be 0.1 nM; in the test with Human plasma sIL-6R [8], 0.13 nM. In addition, in the test with Human plasma sIL-6R [7], the “IC50 (read off the curve)” value is roughly 0.4 nM.

B3: PMP21A10 (VHH)
VHH: B2 VHH with V28I, S53T
notes: as for B2
In the test with Human soluble IL-6R [3], B3 showed a Kd of 0.012 nM. Further, in the test with Human soluble IL-6R [4], the kon was roughly 1e+06 M⁻¹ s⁻¹. The molecule also displayed a koff with Human soluble IL-6R [5] of 1.2e-05 s⁻¹. In addition, the IC50 with Cyno plasma sIL-6R [6] stood at 0.08 nM; with Human plasma sIL-6R [8] it was 0.1 nM. In addition, in the test with Human plasma sIL-6R [7], the “IC50 (read off the curve)” value is roughly 0.4 nM.

B4: PMP20F6 (VHH)
VHH: B2 VHH with E101N
notes: as for B2
In the test with Human soluble IL-6R [3], B4 registered a dissociation constant Kd of 0.033 nM. For the same molecule, in the test with Human soluble IL-6R [4], the kon is roughly 1e+06 M⁻¹ s⁻¹. In the test with Human soluble IL-6R [5], this molecule gave a koff of 3.3e-05 s⁻¹. In addition, the IC50 with Cyno plasma sIL-6R [6] amounted to 0.07 nM; in the test with Human plasma sIL-6R [8], 0.13 nM. Further, the “IC50 (read off the curve)” value with Human plasma sIL-6R [7] was roughly 0.4 nM.

B5: PMP21D11 (VHH)
VHH: B2 VHH with S53T
notes: as for B2
With B5, binding with Human soluble IL-6R [3] was put at a Kd of 0.035 nM. Moreover, the kon with Human soluble IL-6R [4] is roughly 1e+06 M⁻¹ s⁻¹. In addition, in the test with Human soluble IL-6R [5], the koff stood at 3.5e-05 s⁻¹. In the test with Human plasma sIL-6R [7], the “IC50 (read off the curve)” value was roughly 0.4 nM. Moreover, half-maximal inhibition in the test with Human plasma sIL-6R [8] (IC50) required 0.13 nM.

B6: IL6R61 (VHH)
VHH: EVQLVESGGGLVQPGGSLRLSCAASGSIFKVNAMGWYRQAPGKGRELVAGIISGGSTNYADSVKGRLTISRDNAKNTVYLQMNSLRPEDTAVYYCSFVTTNSDYDLGRDYWGQGTLVTVSS
In the test with Human soluble IL-6R [9], B6 registered a Kd of 2 nM, a koff of 0.0017 s⁻¹ and a kon of 850000 M⁻¹ s⁻¹. In the test with Human soluble IL-6R [10], the “fold difference of IC50 to IL6R03” value was no more than 2 fold. The molecule further displayed an IC50 in the test with Human soluble IL-6R [11] of 0.336 nM.

B7: IL6R63 (VHH)
VHH: B6 VHH with V78L
B7: in the test with Human soluble IL-6R [9], binding was put at a Kd of 3.7 nM, the koff came to 0.00365 s⁻¹ and the kon was found to be 990000 M⁻¹ s⁻¹. In addition, the “fold difference of IC50 to IL6R03” value with Human soluble IL-6R [10] is roughly 4 fold. This molecule also gave an IC50 with Human soluble IL-6R [11] of 0.65 nM.

B8: IL6R64 (VHH)
VHH: B6 VHH with S96A
In the test with Human soluble IL-6R [9], B8 returned a koff of 0.001 s⁻¹. Besides, in the test with Human soluble IL-6R [10], the “fold difference of IC50 to IL6R03” value was no more than 2 fold. The IC50 with Human soluble IL-6R [11] came to 0.108 nM.

B9: IL6R62 (VHH)
VHH: B6 VHH with L67F
In the test with Human soluble IL-6R [9], B9 gave an equilibrium dissociation constant (Kd) of 2.2 nM, a koff of 0.00207 s⁻¹ and an on-rate constant (kon) of 929000 M⁻¹ s⁻¹. Besides, the “fold difference of IC50 to IL6R03” value with Human soluble IL-6R [10] is no more than 2 fold. The IC50 with Human soluble IL-6R [11] is 0.28 nM.
